14 molecules from patent US20250026815A1 (GAN AND LEE PHARMACEUTICALS, published 2025) can be followed below.

Like-named read-outs stand apart in the source and are kept apart here.

For test [1], the target named is RSV-F protein of RSV A2 virus (as carried by the live virus in the neutralisation assay) (human respiratory syncytial virus, …, UniProt P03420 26-574). Kind of test: cell-based or functional assay.
For test [2], the target named is T1, recombinant RSV-F protein (RSV A2 strain fusion (F) protein with added His tag) (human respiratory syncytial virus, A2 …, UniProt P03420 26-524).
T1 construct: also called RSV-F recombinant protein
T1 sequence (P03420 26-109, chain 1 of 2): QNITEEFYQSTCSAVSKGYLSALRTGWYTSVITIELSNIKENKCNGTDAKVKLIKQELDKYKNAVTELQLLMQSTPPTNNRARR
T1 sequence (P03420 137-524, chain 2 of 2): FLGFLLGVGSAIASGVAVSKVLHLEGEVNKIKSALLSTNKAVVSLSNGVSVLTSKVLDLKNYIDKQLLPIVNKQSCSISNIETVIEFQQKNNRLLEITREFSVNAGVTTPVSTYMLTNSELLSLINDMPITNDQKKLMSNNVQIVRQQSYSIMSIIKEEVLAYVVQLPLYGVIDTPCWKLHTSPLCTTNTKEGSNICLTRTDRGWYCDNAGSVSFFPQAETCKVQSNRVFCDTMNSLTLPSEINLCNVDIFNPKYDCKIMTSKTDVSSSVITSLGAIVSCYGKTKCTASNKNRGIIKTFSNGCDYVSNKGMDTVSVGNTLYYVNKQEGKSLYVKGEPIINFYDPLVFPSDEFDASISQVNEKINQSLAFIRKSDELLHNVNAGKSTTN
Put plainly: SPR (Biacore), antibody captured, RSV-F as analyte. (SPR reads the build-up and loss of mass on a sensor chip optically.)

Test [3] has as its target RSV-F protein of RSV B9320 virus (as carried by the live virus in the neutralisation assay) (human respiratory syncytial virus, …). Put plainly: cell-based or functional assay.
Test [4] concerns the target RSV-F protein of RSV A Long virus (as carried by the live virus in the neutralisation assay) (human respiratory syncytial virus, …, UniProt P12568 26-574). Kind of test: cell-based or functional assay.
For test [5], the target named is T1, recombinant RSV-F protein (RSV A2 …). Put plainly: SPR (Biacore), antibody captured, RSV-F as analyte. This is another data set of the same source.
For test [6] the target is unchanged. Kind of test: SPR (Biacore), antibody captured, RSV-F as analyte; column head prints nM, Kd/Ka gives M.

Chain of RSV-F protein of RSV A2 virus (as carried by the live virus in the neutralisation assay) (P03420 26-574): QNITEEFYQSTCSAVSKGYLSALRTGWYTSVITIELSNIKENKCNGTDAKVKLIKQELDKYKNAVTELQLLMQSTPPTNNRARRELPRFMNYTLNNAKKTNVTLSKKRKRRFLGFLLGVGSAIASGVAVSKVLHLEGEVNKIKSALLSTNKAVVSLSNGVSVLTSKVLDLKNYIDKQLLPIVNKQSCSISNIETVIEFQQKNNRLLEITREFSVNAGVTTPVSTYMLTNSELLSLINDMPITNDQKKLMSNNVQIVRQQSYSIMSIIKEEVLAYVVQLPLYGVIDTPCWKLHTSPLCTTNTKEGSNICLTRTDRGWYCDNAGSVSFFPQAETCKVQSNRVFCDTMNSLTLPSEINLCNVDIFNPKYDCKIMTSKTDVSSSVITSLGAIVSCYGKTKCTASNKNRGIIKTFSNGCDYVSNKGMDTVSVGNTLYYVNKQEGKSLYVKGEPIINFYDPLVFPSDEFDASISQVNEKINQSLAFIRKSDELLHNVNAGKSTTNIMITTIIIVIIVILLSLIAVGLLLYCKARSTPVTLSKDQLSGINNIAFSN

B1: R3-39A3QH (antibody, human IgG1, kappa, V domains shown)
VH: QVKLEESGPELVKPGASVKISCKASGYAFSSSWVNWVQQRPGQGLEWIGRIYPGDGETKYSGKFRGKATLTADKSSNTVYMQVSSLTSVDSAVYFCAREGGLITSSGYYHAMDYWGQGTSVTVSS
VL: DIVLTQSPPSLAVSLGQRATISCRASKSVDSYGNGFMHWYQQKPGQPPKLLIFLASNLESGVPARFSGSGSRTDFTLTIDPVEADDAASYYCQQSDEDPTFGGGTKLEIKR
notes: also called chimeric antibody of R3-39A3
For orientation: Kd means the free concentration of one partner at which half of the binding sites on the other are occupied at equilibrium, for simple one-to-one binding. Usually koff stands for a measure of how fast the partners let go of each other. As usually defined, the kon is the second-order rate constant of association. Turning to B1, in test [1], the “Absolute IC50, neutralizing RSV A2 (HEp-2 cells, indirect ELISA)” value (from here on “Absolute IC50, neutralizing RSV A2”) turned out to be 0.00592 µg/mL. In test [2], the Kd turned out to be 0.171 nM, the off-rate (koff) amounted to 0.000115 s⁻¹ and the kon amounted to 673000 M⁻¹ s⁻¹.

B2: R3-16A10QH (antibody, human IgG1, kappa, V domains shown)
VH: EVKLEESGPELVKPGASVKISCKTSGYAFSDSWMNWVKQRPGQGLEWIGRIYPGDGDTQYNGKVKGKATLTADKSSSTAYMQVSSLTSVDSAVYFCAREGGMITSSGYYHALDYWGQGTSVTVSS
VL: DIVMTQSPASLAVSLGQRTTISCRASESVDSYGNSFLNWYQQKPGQPPKVLIYLASNLESGVPARFSGSGSRTDFTLIIDPVEADDAATYYCQQNNEDPTFGGGTKLEIKR
notes: also called chimeric antibody of R3-16A10
For B2, the “Absolute IC50, neutralizing RSV B9320 (HEp-2 cells, indirect ELISA)” value (shortened to “Absolute IC50, neutralizing RSV B9320”) in test [3] worked out at 0.0726 µg/mL. In addition, the “Absolute IC50, neutralizing RSV A Long (HEp-2 cells, indirect ELISA)” value (“Absolute IC50, neutralizing RSV A Long” below) in test [4] turned out to be 0.0258 µg/mL. In addition, the “Absolute IC50, neutralizing RSV A2” value in test [1] was 0.0118 µg/mL. Moreover, in test [2], the koff is 2.69e-05 s⁻¹ and the association rate constant (kon) was determined as 537000 M⁻¹ s⁻¹.

B3: R3-38B6QH (antibody, human IgG1, kappa, V domains shown)
VH: QVQLEESGPELVKPGASVKISCKASGYAFSSSWMNWVKQRPGQGLEWIGRIYPGDGDTQYHGKVKGKATLTADKSSSTAYMQVSSLTSVDSAVYFCAREGGMITSNGYYHALDYWGQGTSVTVSS
VL: DIVMTQTTASLAVSQGQRATISCSASESVDSYGNSFMNWYQQKPGQPPKVLIYLASNLESGVPARFSGSGSRTDFTLTIDPVEADDAATYYCQQNNEDPTFGGGTKLEIKR
notes: also called chimeric antibody of R3-38B6
On to B3, for which the “Absolute IC50, neutralizing RSV A Long” value in test [4] worked out at 0.0733 µg/mL. Besides, the “Absolute IC50, neutralizing RSV A2” value in test [1] was 0.0176 µg/mL. Further, in test [2], the equilibrium dissociation constant (Kd) amounted to 0.061 nM, the dissociation rate constant (koff) stood at 3.02e-05 s⁻¹ and the on-rate constant (kon) worked out at 495000 M⁻¹ s⁻¹.

B4: R18-22D7QH (antibody, human IgG1, kappa, V domains shown)
VH: EVKLLESGGGLVQPGGSLKLSCAASGFDFSRYWMSWVRQAPGKGLEWIGEINPDSSTINYTPSLKDKFIISRDNAKNTLYLQMSKVRSEDTALYYCARRGGISYAMDYWGQGTSVTVSS
VL: DIVITQDELSNPVTSGESVSISCRSSKSLLYKDGKTYLNWFLQRPGQSPQLLIYLMSTRASGVSDRFSGSGSGTDFTLEISRVKAEDVGVYYCQQLVEYPRTFGGGTKLEIKR
notes: also called chimeric antibody of R18-22D7
With B4, in test [3], the “Absolute IC50, neutralizing RSV B9320” value came out at 0.00893 µg/mL. In addition, the “Absolute IC50, neutralizing RSV A Long” value in test [4] amounted to 0.0683 µg/mL. The “Absolute IC50, neutralizing RSV A2” value in test [1] came out at 0.03 µg/mL. Also, in test [2], the Kd stood at 3.54 nM, the koff is 0.00127 s⁻¹ and the kon amounted to 357000 M⁻¹ s⁻¹.

B5: R10-10B2QH (antibody, human IgG1, kappa, V domains shown)
VH: QVQLEESGAELVRSGASVKLSCTASGFNIKDYYIHWVKQRPEQGLEWIGWNDPENGDTEYAPKFQGKATMTADTSSNTVYLQLSSLTSEDSAVYFCKSFDSYLEYWGQGTSVTVSS
VL: DIVMTQTTLSLPVNLGDQASISCRSSQSLVHTDGNTFLEWYLQRPGQSPKLLIYKVSIRFSGVPDRFSGSGSGTDFTLKISRVETEDLGVYYCFQGSHVPRTFGGGTKLEIKR
notes: also called chimeric antibody of R10-10B2
Regarding B5, the “Absolute IC50, neutralizing RSV B9320” value in test [3] was 0.0915 µg/mL. Further, the “Absolute IC50, neutralizing RSV A Long” value in test [4] was found to be 0.214 µg/mL. For the same molecule, in test [1], the “Absolute IC50, neutralizing RSV A2” value was 0.0968 µg/mL. In test [2], the Kd came out at 0.0489 nM, the koff is 3.68e-05 s⁻¹ and the kon was 753000 M⁻¹ s⁻¹.

B6: R10-19B2QH (antibody, human IgG1, kappa, V domains shown)
VH: EVKLQESGPGMLQPSQTLSLTCSFSGFSLSTSGMGVSWIRQPSGKGLEWLAHIYWDDDKNFNPSLRSRLIISKDPSRNQVFLEITSVDTADTATYFCARKLYNDYDYILDYWGQGTSVTVSS
VL: DIVMTQAAFSNPVTLGTSASISCRSSKSLLHSNGITYLCWFLQKPGQSPQLLIYQMSNLASGVPDRFSGSGSGTDFTLRISRVEAEDVGVYYCAQNLELWTFGGGTKLEIKR
Regarding B6, the “Absolute IC50, neutralizing RSV B9320” value in test [3] amounted to 0.021 µg/mL. In test [4], the “Absolute IC50, neutralizing RSV A Long” value turned out to be 0.0102 µg/mL. Further, in test [1], the “Absolute IC50, neutralizing RSV A2” value amounted to 0.012 µg/mL.

B7: R18-11B1QH (antibody, human IgG1, kappa, V domains shown)
VH: EVQLEESGPELVKPGASVKISCKSSAQTFSGSWINWVKQRPGQGLEWIGRIFPGDGDTKYNMNFTGKATLTADKSSNTAYMHVSSLTSVDSAVYFCARYDGYYDIGYFDVWGAGTTVTVSS
VL: DIVMTQTPASLAVSLGQRATISCRASASVDSYGNKFIHWYQQKPGQPPKLLISLASNLESGVPARFSGSGSRTDFTLTIDPVEADDAATYYCQQTNEDPWTFGGGTKLEIKR
notes: also called chimeric antibody of R18-11B1
B7: the “Absolute IC50, neutralizing RSV A Long” value in test [4] is 0.0432 µg/mL. The “Absolute IC50, neutralizing RSV A2” value in test [1] was found to be 0.101 µg/mL. Also, in test [2], the Kd was determined as 0.205 nM, the koff was found to be 0.000169 s⁻¹ and the association rate constant (kon) is 824000 M⁻¹ s⁻¹.

B8: A2-G (antibody, human IgG1, kappa, V domains shown)
VH: QVTLKESGPALVKPTQTLTLTCTFSGFSLSTSGMGVSWIRQPPGKALEWLAHIYWDDDKNFNPSLRSRLTITKDPSKNQVVLTMTNMDPVDTATYFCARKLYNDYDYILDYWGQGTTVTVSS
VL: DIVMTQSPLSLPVTPGEPASISCRSSKSLLHSNGITYLGWFLQKPGQSPQLLIYQMSNLASGVPDRFSGSGSGTDFTLKISRVEAEDVGVYYCAQNLELWTFGQGTRLEIKR
notes: also called humanized mutant antibody A2-G
In the case of B8, in test [5], the koff turned out to be 0.000138 s⁻¹ and the kon was found to be 1.97e+06 M⁻¹ s⁻¹. Also, the Kd in test [6] is 0.07 nM.

B9: A2-I (antibody, V domains shown)
VH: QVTLKESGPALVKPTQTLTLTCTFSGFSLSTSGMGVSWIRQPPGKALEWLAHIYWDDDKNFNPSLRSRLTITKDPSKNQVVLTMTNMDPVDTATYFCARKLYNDYDYILDYWGQGTTVTVSS
VL: DIVMTQSPLSLPVTPGEPASISCRSSKSLLHSNGITYLIWFLQKPGQSPQLLIYQMSNLASGVPDRFSGSGSGTDFTLKISRVEAEDVGVYYCAQNLELWTFGQGTRLEIK
notes: also called humanized mutant antibody A2-I
In the case of B9, in test [5], the off-rate constant (koff) was 0.000162 s⁻¹ and the kon stood at 3.07e+06 M⁻¹ s⁻¹. Further, the Kd in test [6] came out at 0.0528 nM.

B10: A2-P (antibody, V domains shown)
VH: QVTLKESGPALVKPTQTLTLTCTFSGFSLSTSGMGVSWIRQPPGKALEWLAHIYWDDDKNFNPSLRSRLTITKDPSKNQVVLTMTNMDPVDTATYFCARKLYNDYDYILDYWGQGTTVTVSS
VL: DIVMTQSPLSLPVTPGEPASISCRSSKSLLHSNGITYLPWFLQKPGQSPQLLIYQMSNLASGVPDRFSGSGSGTDFTLKISRVEAEDVGVYYCAQNLELWTFGQGTRLEIK
notes: also called humanized mutant antibody A2-P
With B10, in test [5], the koff came out at 0.000156 s⁻¹ and the kon is 3.57e+06 M⁻¹ s⁻¹. The Kd in test [6] worked out at 0.0438 nM.

B11: A2-A (antibody, human IgG1, kappa, V domains shown)
VH: QVTLKESGPALVKPTQTLTLTCTFSGFSLSTSGMGVSWIRQPPGKALEWLAHIYWDDDKNFNPSLRSRLTITKDPSKNQVVLTMTNMDPVDTATYFCARKLYNDYDYILDYWGQGTTVTVSS
VL: DIVMTQSPLSLPVTPGEPASISCRSSKSLLHSNGITYLAWFLQKPGQSPQLLIYQMSNLASGVPDRFSGSGSGTDFTLKISRVEAEDVGVYYCAQNLELWTFGQGTRLEIKR
notes: also called humanized mutant antibody A2-A
Regarding B11, in test [5], the koff was determined as 0.000117 s⁻¹ and the kon turned out to be 2.3e+06 M⁻¹ s⁻¹. Further, the Kd in test [6] stood at 0.0509 nM.

B12: A2-N (antibody, V domains shown)
VH: QVTLKESGPALVKPTQTLTLTCTFSGFSLSTSGMGVSWIRQPPGKALEWLAHIYWDDDKNFNPSLRSRLTITKDPSKNQVVLTMTNMDPVDTATYFCARKLYNDYDYILDYWGQGTTVTVSS
VL: DIVMTQSPLSLPVTPGEPASISCRSSKSLLHSNGITYLNWFLQKPGQSPQLLIYQMSNLASGVPDRFSGSGSGTDFTLKISRVEAEDVGVYYCAQNLELWTFGQGTRLEIK
notes: also called humanized mutant antibody A2-N
Regarding B12, in test [5], the koff was 0.000165 s⁻¹ and the kon worked out at 1.61e+06 M⁻¹ s⁻¹. In addition, in test [6], the Kd is 0.102 nM.

B13: A2-M (antibody, V domains shown)
VH: QVTLKESGPALVKPTQTLTLTCTFSGFSLSTSGMGVSWIRQPPGKALEWLAHIYWDDDKNFNPSLRSRLTITKDPSKNQVVLTMTNMDPVDTATYFCARKLYNDYDYILDYWGQGTTVTVSS
VL: DIVMTQSPLSLPVTPGEPASISCRSSKSLLHSNGITYLMWFLQKPGQSPQLLIYQMSNLASGVPDRFSGSGSGTDFTLKISRVEAEDVGVYYCAQNLELWTFGQGTRLEIK
notes: also called humanized mutant antibody A2-M
In the case of B13, in test [5], the koff came to 0.000138 s⁻¹ and the kon was 2.31e+06 M⁻¹ s⁻¹. In addition, in test [6], the Kd amounted to 0.0597 nM.

B14: A2-Q (antibody, V domains shown)
VH: QVTLKESGPALVKPTQTLTLTCTFSGFSLSTSGMGVSWIRQPPGKALEWLAHIYWDDDKNFNPSLRSRLTITKDPSKNQVVLTMTNMDPVDTATYFCARKLYNDYDYILDYWGQGTTVTVSS
VL: DIVMTQSPLSLPVTPGEPASISCRSSKSLLHSNGITYLQWFLQKPGQSPQLLIYQMSNLASGVPDRFSGSGSGTDFTLKISRVEAEDVGVYYCAQNLELWTFGQGTRLEIK
notes: also called humanized mutant antibody A2-Q
As for B14, in test [5], the koff was 0.000166 s⁻¹ and the on-rate (kon) was 2.38e+06 M⁻¹ s⁻¹. Besides, in test [6], the Kd came to 0.0698 nM.
